Legend:
[1] = target: binding of FAM19A5 protein to LRRC4B (amino acids 453-576)-hFc (Homo sapiens, UniProt Q7Z5A7); assay: Competitive inhibition assay, plate coated with LRRC4B (amino acids 453-576)-hFc, peptides at 20 nM
Excerpt: Next, to assess whether polypeptides comprising the binding domains of LRRC4 or LRRC4C proteins can have similar inhibitory effects on LRRC4B protein binding, the following synthetic peptides were constructed: (1) FBC4-23 (contains the binding domain of the LRRC4 protein, i.e., YSFFTTVTVETTE); and (2) FBC4C-23 (contains the binding domain of the LRRC4C protein, i.e., FSYFSTVTVETME). Then, the ability of the peptides to inhibit the binding of LRRC4 protein family members to FAM19A5 protein was assessed using a competitive inhibition assay. Briefly, plates were coated with 100 nM of either LRRC4B protein fragment #1 (amino acids 36-576 of SEQ ID NO: 2; SEQ ID NO: 5) or LRRC4B protein fragment #2 (amino acids 453-576 of SEQ ID NO: 2; SEQ ID NO: 7). Then, recombinant FAM19A5 protein (5 ng/ml for plates coated with LRRC4B fragment #1; and 1 ng/mL for plates coated with LRRC4B fragment #2) was added to the plates in combination with 20 nM of the FBC4-23, FBC4C-23, and FB-20 peptides. The plates were incubated at 37° C. and then, the amount of FAM19A5 protein bound to the coated LRRC4B protein fragments was assessed using HRP-conjugated anti-FAM19A5 (1-65) antibody.
Next, to determine the minimal sequence required to inhibit the interaction of FAM19A5 and members of the LRRC4 protein family, ten FB-20 peptide variants were constructed by serially deleting one or more amino acids from the N-terminus or C-terminus of the FB-20 peptide. Then, a competitive inhibition assay was used to assess the ability of the different FB-20 peptide variants to inhibit the interaction between FAM19A5 and LRRC4B protein. Again, plates were coated with 100 nM of either LRRC4B protein fragment #1 (amino acids 36-576 of SEQ ID NO: 2; SEQ ID NO: 5) or LRRC4B protein fragment #2 (amino acids 453-576 of SEQ ID NO: 2; SEQ ID NO: 7). Then, recombinant FAM19A5 protein (5 ng/ml for plates coated with LRRC4B fragment #1; and 1 ng/mL for plates coated with LRRC4B fragment #2) was added to the plates in combination with 20 nM of the different peptides described above. After incubating the plates at 37° C., the amount of FAM19A5 protein bound to the coated LRRC4B protein fragments was assessed using HRP-conjugated anti-FAM19A5 (1-65) antibody.
To identify the critical amino acid residues, multiple FB-20 peptide mutants were constructed, in which the individual residues of the core binding domain (i.e., YTYFTTVTVETLE; SEQ ID NO: 15) were substituted with alanine (A) or asparagine (N). Then, the ability of these FB-20 peptide mutants to inhibit the interaction between LRRC4B and FAM19A5 proteins was assessed, as described in Examples 3 and 4.

[2] = target: binding of FAM19A5 protein to full-length ectodomain of LRRC4C protein (Homo sapiens, UniProt Q7Z5A7); assay: Competitive inhibition assay, plate coated with full-length ectodomain of LRRC4C; settings: FAM19A5 5 ng/mL; 100 nM/well coat
Sequence of binding of FAM19A5 protein to full-length ectodomain of LRRC4C protein (Q7Z5A7 44-132): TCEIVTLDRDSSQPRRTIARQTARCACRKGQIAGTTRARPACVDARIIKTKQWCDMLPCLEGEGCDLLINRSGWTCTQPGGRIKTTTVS
Procedure: As described in Example 3, there appeared to be much similarity in the binding domains of the different members of the LRRC4 family. […] Then, recombinant FAM19A5 protein (5 ng/mL) was added in combination with one of the following: (i) LRRC4B (484-576) protein fragment, (ii) LRRC4B (453-576, AA) protein fragment, and (iii) synthetic FB-20 peptide. The plates were incubated at 37° C., and then, the amount of FAM19A5 protein bound to the coated LRRC4, LRRC4B, or LRRC4C proteins was measured using anti-FAM19A5 (1-65) antibody.

[3] = tested on: mouse primary hippocampal neurons; assay: Synaptic marker (SYP, PSD95) expression in mouse primary hippocampal neurons; assay type: cell-based; settings: 6 or 60 nM
Procedure: Next, it is generally known that neurites that outgrow from other neurites are capable of differentiating into axons, forming presynapses. Other neurites remain minor neurites and differentiate into dendrites, forming postsynapses. Therefore, whether the LRRC4B (453-576) protein fragment can also affect pre- and post-synaptic formation was also assessed. Briefly, mouse primary hippocampal neurons were cultured in vitro with the LRRC4B (453-576) protein fragment (6 or 60 nM). Control cells were treated with either DMSO (“Veh”) or the mutant LRRC4B (453-576) protein fragment which is not capable of binding to FAM19A5 protein (comprises alanine substitutions at positions 488 and 489). Then, at days 3 and 6 post initial culture, the expression level of synaptophysin (SYP; a presynaptic marker) was assessed. At day 7 post initial culture, the expression level of postsynaptic density 95 (PSD95; a postsynaptic marker) was assessed.
Primary hippocampal neurons were prepared from postnatal pups (postnatal day 1) of C57BL/6 (Nara Biotech, Seoul, Korea) as previously described by Beaudoin et al., Nature protocols 7(9): 1741-1754 (2012), which is incorporated herein by reference in its entirety. Briefly, cortices were dissected in Hank's buffered salt solution (HBSS) (Invitrogen, Carlsbad, CA, USA) and digested with 2.5% trypsin for 15 min at 37° C. […]

Sequence of binding of FAM19A5 protein to LRRC4B (amino acids 453-576)-hFc (Q7Z5A7 44-132): as above

GYTYFTTVTVETLETQPGEE [FB-20]
Inhibition rate (%) LRRC4B (amino acids 453-576)-hFc ([1]; Table 8, 20 nM peptide, FAM19A5 1 ng/mL): 63.2%
Inhibition rate (%) LRRC4B (amino acids 453-576)-hFc ([1]; Table 9, deletion variants, 20 nM peptide, FAM19A5 1 ng/mL): 62.0%
Inhibition rate (%) LRRC4B (amino acids 453-576)-hFc ([1]; Table 10, alanine/asparagine mutants): 63.2%
inhibition of FAM19A5 binding to coated LRRC4C protein (in words) [2]: able to inhibit FAM19A5 protein from binding

B1: LRRC4B (453-576): LRRC4B ectodomain fragment, amino acids 453-576 of SEQ ID NO: 2; FLAG-tagged or hFc-fused (protein)
chain: VSAVDPVAAGGTGSGGGGPGGSGGVGGGSGGYTYFTTVTVETLETQPGEEALQPRGTEKEPPGPTTDGVWGGGRPGDAAGPASSSTTAPAPRSSRPTEKAFTVPITDVTENALKDLDDVMKTTK
modifications: FLAG tag or human Fc
notes: FLAG-tagged or hFc-fused
SYP and PSD95 expression [3]: increased both SYP and PSD95 expression
number of puncta colabeled with SYP and PSD95 [3]: increased number of puncta that were colabeled with SYP and PSD95

— patent publication US20240238445A1, “INHIBITORS AND USES THEREOF” (NEURACLE SCIENCE CO., LTD., priority 2021, published 2024)
